PMC11117022 (Advanced Healthcare Materials, 2022)
Like-named read-outs stand apart in the source and are kept apart here.

Legend:
SEC [1] = target: the molecule itself; assay: SEC
SEC [2] = target: the molecule itself; assay: SEC; remark: listed apart in the source

B1: mouse SIINFEKL‐STINGΔTM (other, chicken | mouse)
chain: GLEQLESIINFEKLTEWTSSLTPAEVSAVCEEKKLNVAHGLAWSYYIGYLRLILPGLQARIRMFNQLHNNMLSGAGSRRLYILFPLDCGVPDNLSVVDPNIRFRDMLPQQNIDRAGIKNRVYSNSVYEILENGQPAGVCILEYATPLQTLFAMSQDAKAGFSREDRLEQAKLFCRTLEEILEDVPESRNNCRLIVYQEPTDGNSFSLSQEVLRHIRQEEKEEVTMNAPMTSVAPPPSVLSQEPRLLISGMDQPLPLRTDLI
stoichiometry N (SEC [1]): 2
stoichiometry N (SEC [2]): 4
